This is an account of results in patent US20230357348A1 (AstraZeneca / MedImmune, published 2023).

The target of experiment [1] is human glucagon receptor (hGCGR) (human, UniProt P47871 26-477). The experiment in a line: cell-based or functional assay.
The target in experiment [2] is human GLP-1 receptor (hGLP-1R) (human, UniProt P43220 24-463). Nature of the experiment: cell-based or functional assay.

Starred links: 1 amine or outer side, 2 acyl side, 3 side chain; linkers in the order of their positions; H or OH if unused. Non-standard residues stand in square brackets, D forms with d. Groups on a side chain read outwards from the residue. No end group written: not given here. *: point of attachment. C20 diacid = O=C(O)CCCCCCCCCCCCCCCCCCC(=O)*; C18 diacid = O=C(O)CCCCCCCCCCCCCCCCC(=O)*; γGlu = O=C(O)[C@H](CCC(=O)[*:2])N[*:1]; αMeF = C[C@](N)(Cc1ccccc1)C(=O)O; AEEA = NCCOCCOCC(=O)O; Aib = CC(C)(N)C(=O)O

Chain of human glucagon receptor (hGCGR) (P47871 26-477): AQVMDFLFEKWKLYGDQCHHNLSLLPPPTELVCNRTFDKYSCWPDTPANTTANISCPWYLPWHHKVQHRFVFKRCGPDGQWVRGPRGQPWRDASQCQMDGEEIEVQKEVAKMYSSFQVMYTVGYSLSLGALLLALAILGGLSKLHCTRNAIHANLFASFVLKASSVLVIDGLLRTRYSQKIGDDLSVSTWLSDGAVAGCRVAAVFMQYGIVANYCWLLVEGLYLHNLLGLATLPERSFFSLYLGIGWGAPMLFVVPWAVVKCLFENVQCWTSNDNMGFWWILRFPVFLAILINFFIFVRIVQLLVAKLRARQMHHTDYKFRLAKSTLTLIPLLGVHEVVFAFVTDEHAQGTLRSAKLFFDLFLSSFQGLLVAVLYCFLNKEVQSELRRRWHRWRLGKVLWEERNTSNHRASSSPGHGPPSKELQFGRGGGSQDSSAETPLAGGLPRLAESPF

For the molecule H[Aib]QGTFTSDVSK[αMeF]LDRK([AEEA-AEEA-γGlu-C20 diacid])RARDFVQWLL[Aib]E-NH2 [Peptide 471], the “hGluc-R EC50 (pM)” value in experiment [1] is 63.6 pM. Also, the “hGLP-1R EC50 (pM)” value in experiment [2] is 102 pM.

B1: Peptide 462 (peptide)
peptide: H[Aib]QGTFTSDVSK[αMeF]LDTK([AEEA-AEEA-γGlu-C18 diacid])RARDFVQWLLEAG-OH
modifications: N-terminus assumed
SMILES: CC(C)C[C@H](NC(=O)[C@H](CC(C)C)NC(=O)[C@H](Cc1c[nH]c2ccccc12)NC(=O)[C@H](CCC(N)=O)NC(=O)[C@@H](NC(=O)[C@H](Cc1ccccc1)NC(=O)[C@H](CC(=O)O)NC(=O)[C@H](CCCNC(=N)N)NC(=O)[C@H](C)NC(=O)[C@H](CCCNC(=N)N)NC(=O)[C@H](CCCCNC(=O)COCCOCCNC(=O)COCCOCCNC(=O)CC[C@H](NC(=O)CCCCCCCCCCCCCCCCC(=O)O)C(=O)O)NC(=O)[C@@H](NC(=O)[C@H](CC(=O)O)NC(=O)[C@H](CC(C)C)NC(=O)[C@](C)(Cc1ccccc1)NC(=O)[C@H](CCCCN)NC(=O)[C@H](CO)NC(=O)[C@@H](NC(=O)[C@H](CC(=O)O)NC(=O)[C@H](CO)NC(=O)[C@@H](NC(=O)[C@H](Cc1ccccc1)NC(=O)[C@@H](NC(=O)CNC(=O)[C@H](CCC(N)=O)NC(=O)C(C)(C)NC(=O)[C@@H](N)Cc1c[nH]cn1)[C@@H](C)O)[C@@H](C)O)C(C)C)[C@@H](C)O)C(C)C)C(=O)N[C@@H](CCC(=O)O)C(=O)N[C@@H](C)C(=O)NCC(=O)O
Take B1: the “hGluc-R EC50 (pM)” value in experiment [1] worked out at 89.2 pM. Moreover, the “hGLP-1R EC50 (pM)” value in experiment [2] turned out to be 39.5 pM.

With H[Aib]QGTFTSDVSK[αMeF]LDKK([AEEA-AEEA-γGlu-C20 diacid])RAQDFVRWLLAE-NH2 [Peptide 460], the “hGluc-R EC50 (pM)” value in experiment [1] was 66.5 pM. Also, in experiment [2], the “hGLP-1R EC50 (pM)” value was determined as 117 pM.

B2: Peptide 466 (peptide)
peptide: H[Aib]QGTFTSDVSK[αMeF]LDTK([AEEA-AEEA-γGlu-C18 diacid])RAQDFVQWLLE[Aib]G-NH2
modifications: N-terminus assumed
SMILES: CC(C)C[C@H](NC(=O)[C@H](Cc1c[nH]c2ccccc12)NC(=O)[C@H](CCC(N)=O)NC(=O)[C@@H](NC(=O)[C@H](Cc1ccccc1)NC(=O)[C@H](CC(=O)O)NC(=O)[C@H](CCC(N)=O)NC(=O)[C@H](C)NC(=O)[C@H](CCCNC(=N)N)NC(=O)[C@H](CCCCNC(=O)COCCOCCNC(=O)COCCOCCNC(=O)CC[C@H](NC(=O)CCCCCCCCCCCCCCCCC(=O)O)C(=O)O)NC(=O)[C@@H](NC(=O)[C@H](CC(=O)O)NC(=O)[C@H](CC(C)C)NC(=O)[C@](C)(Cc1ccccc1)NC(=O)[C@H](CCCCN)NC(=O)[C@H](CO)NC(=O)[C@@H](NC(=O)[C@H](CC(=O)O)NC(=O)[C@H](CO)NC(=O)[C@@H](NC(=O)[C@H](Cc1ccccc1)NC(=O)[C@@H](NC(=O)CNC(=O)[C@H](CCC(N)=O)NC(=O)C(C)(C)NC(=O)[C@@H](N)Cc1c[nH]cn1)[C@@H](C)O)[C@@H](C)O)C(C)C)[C@@H](C)O)C(C)C)C(=O)N[C@@H](CC(C)C)C(=O)N[C@@H](CCC(=O)O)C(=O)NC(C)(C)C(=O)NCC(N)=O
B2: in experiment [1], the “hGluc-R EC50 (pM)” value is 131 pM. For the same molecule, the “hGLP-1R EC50 (pM)” value in experiment [2] was determined as 35.6 pM.

B3: Peptide 470 (peptide)
peptide: H[Aib]QGTFTSDVSK[αMeF]LDKK([AEEA-AEEA-γGlu-C20 diacid])RARDFVQWLL[Aib]E-NH2
modifications: N-terminus assumed
SMILES: CC(C)C[C@H](NC(=O)[C@H](Cc1c[nH]c2ccccc12)NC(=O)[C@H](CCC(N)=O)NC(=O)[C@@H](NC(=O)[C@H](Cc1ccccc1)NC(=O)[C@H](CC(=O)O)NC(=O)[C@H](CCCNC(=N)N)NC(=O)[C@H](C)NC(=O)[C@H](CCCNC(=N)N)NC(=O)[C@H](CCCCNC(=O)COCCOCCNC(=O)COCCOCCNC(=O)CC[C@H](NC(=O)CCCCCCCCCCCCCCCCCCC(=O)O)C(=O)O)NC(=O)[C@H](CCCCN)NC(=O)[C@H](CC(=O)O)NC(=O)[C@H](CC(C)C)NC(=O)[C@](C)(Cc1ccccc1)NC(=O)[C@H](CCCCN)NC(=O)[C@H](CO)NC(=O)[C@@H](NC(=O)[C@H](CC(=O)O)NC(=O)[C@H](CO)NC(=O)[C@@H](NC(=O)[C@H](Cc1ccccc1)NC(=O)[C@@H](NC(=O)CNC(=O)[C@H](CCC(N)=O)NC(=O)C(C)(C)NC(=O)[C@@H](N)Cc1c[nH]cn1)[C@@H](C)O)[C@@H](C)O)C(C)C)C(C)C)C(=O)N[C@@H](CC(C)C)C(=O)NC(C)(C)C(=O)N[C@@H](CCC(=O)O)C(N)=O
As to B3, in experiment [1], the “hGluc-R EC50 (pM)” value is 30.3 pM. Further, the “hGLP-1R EC50 (pM)” value in experiment [2] was determined as 55.9 pM.

B4: Peptide 469 (peptide)
peptide: H[Aib]QGTFTSDVSK[αMeF]LDTK([AEEA-AEEA-γGlu-γGlu-C20 diacid])RAQDFVQWLLE[Aib]G-NH2
modifications: N-terminus assumed
SMILES: CC(C)C[C@H](NC(=O)[C@H](Cc1c[nH]c2ccccc12)NC(=O)[C@H](CCC(N)=O)NC(=O)[C@@H](NC(=O)[C@H](Cc1ccccc1)NC(=O)[C@H](CC(=O)O)NC(=O)[C@H](CCC(N)=O)NC(=O)[C@H](C)NC(=O)[C@H](CCCNC(=N)N)NC(=O)[C@H](CCCCNC(=O)COCCOCCNC(=O)COCCOCCNC(=O)CC[C@H](NC(=O)CC[C@H](NC(=O)CCCCCCCCCCCCCCCCCCC(=O)O)C(=O)O)C(=O)O)NC(=O)[C@@H](NC(=O)[C@H](CC(=O)O)NC(=O)[C@H](CC(C)C)NC(=O)[C@](C)(Cc1ccccc1)NC(=O)[C@H](CCCCN)NC(=O)[C@H](CO)NC(=O)[C@@H](NC(=O)[C@H](CC(=O)O)NC(=O)[C@H](CO)NC(=O)[C@@H](NC(=O)[C@H](Cc1ccccc1)NC(=O)[C@@H](NC(=O)CNC(=O)[C@H](CCC(N)=O)NC(=O)C(C)(C)NC(=O)[C@@H](N)Cc1c[nH]cn1)[C@@H](C)O)[C@@H](C)O)C(C)C)[C@@H](C)O)C(C)C)C(=O)N[C@@H](CC(C)C)C(=O)N[C@@H](CCC(=O)O)C(=O)NC(C)(C)C(=O)NCC(N)=O
B4: the “hGluc-R EC50 (pM)” value in experiment [1] was found to be 538 pM. In addition, the “hGLP-1R EC50 (pM)” value in experiment [2] stood at 255 pM.

On to H[Aib]QGTFTSDVSK[αMeF]LDTK([AEEA-AEEA-γGlu-γGlu-C18 diacid])RAQDFVQWLLE[Aib]G-NH2 [Peptide 468], for which the “hGluc-R EC50 (pM)” value in experiment [1] is 292 pM. Besides, the “hGLP-1R EC50 (pM)” value in experiment [2] was 67.5 pM.

For H[Aib]QGTFTSDVSK[αMeF]LDKK([AEEA-AEEA-γGlu-C18 diacid])RAQDFVRWLLA (not fully specified (C-terminus)) [Peptide 459], the “hGluc-R EC50 (pM)” value in experiment [1] came out at 36.9 pM. Moreover, the “hGLP-1R EC50 (pM)” value in experiment [2] was 32.7 pM.

B5: Peptide 465 (peptide)
peptide: H[Aib]QGTFTSDVSK[αMeF]LDLK([AEEA-AEEA-γGlu-γGlu-C18 diacid])RAQDFVQWLL[Aib]T-OH
modifications: N-terminus assumed
SMILES: CC(C)C[C@H](NC(=O)[C@H](CC(=O)O)NC(=O)[C@H](CC(C)C)NC(=O)[C@](C)(Cc1ccccc1)NC(=O)[C@H](CCCCN)NC(=O)[C@H](CO)NC(=O)[C@@H](NC(=O)[C@H](CC(=O)O)NC(=O)[C@H](CO)NC(=O)[C@@H](NC(=O)[C@H](Cc1ccccc1)NC(=O)[C@@H](NC(=O)CNC(=O)[C@H](CCC(N)=O)NC(=O)C(C)(C)NC(=O)[C@@H](N)Cc1c[nH]cn1)[C@@H](C)O)[C@@H](C)O)C(C)C)C(=O)N[C@@H](CCCCNC(=O)COCCOCCNC(=O)COCCOCCNC(=O)CC[C@H](NC(=O)CC[C@H](NC(=O)CCCCCCCCCCCCCCCCC(=O)O)C(=O)O)C(=O)O)C(=O)N[C@@H](CCCNC(=N)N)C(=O)N[C@@H](C)C(=O)N[C@@H](CCC(N)=O)C(=O)N[C@@H](CC(=O)O)C(=O)N[C@@H](Cc1ccccc1)C(=O)N[C@H](C(=O)N[C@@H](CCC(N)=O)C(=O)N[C@@H](Cc1c[nH]c2ccccc12)C(=O)N[C@@H](CC(C)C)C(=O)N[C@@H](CC(C)C)C(=O)NC(C)(C)C(=O)N[C@H](C(=O)O)[C@@H](C)O)C(C)C
Consider B5, for which, in experiment [1], the “hGluc-R EC50 (pM)” value was 436 pM. The “hGLP-1R EC50 (pM)” value in experiment [2] amounted to 485 pM.

B6: Peptide 456 (peptide)
peptide: H[Aib]QGTFTSDVSK[αMeF]LDRK([AEEA-AEEA-γGlu-C20 diacid])RAQDFVRWLL[Aib]E-NH2
modifications: N-terminus assumed
SMILES: CC(C)C[C@H](NC(=O)[C@H](Cc1c[nH]c2ccccc12)NC(=O)[C@H](CCCNC(=N)N)NC(=O)[C@@H](NC(=O)[C@H](Cc1ccccc1)NC(=O)[C@H](CC(=O)O)NC(=O)[C@H](CCC(N)=O)NC(=O)[C@H](C)NC(=O)[C@H](CCCNC(=N)N)NC(=O)[C@H](CCCCNC(=O)COCCOCCNC(=O)COCCOCCNC(=O)CC[C@H](NC(=O)CCCCCCCCCCCCCCCCCCC(=O)O)C(=O)O)NC(=O)[C@H](CCCNC(=N)N)NC(=O)[C@H](CC(=O)O)NC(=O)[C@H](CC(C)C)NC(=O)[C@](C)(Cc1ccccc1)NC(=O)[C@H](CCCCN)NC(=O)[C@H](CO)NC(=O)[C@@H](NC(=O)[C@H](CC(=O)O)NC(=O)[C@H](CO)NC(=O)[C@@H](NC(=O)[C@H](Cc1ccccc1)NC(=O)[C@@H](NC(=O)CNC(=O)[C@H](CCC(N)=O)NC(=O)C(C)(C)NC(=O)[C@@H](N)Cc1c[nH]cn1)[C@@H](C)O)[C@@H](C)O)C(C)C)C(C)C)C(=O)N[C@@H](CC(C)C)C(=O)NC(C)(C)C(=O)N[C@@H](CCC(=O)O)C(N)=O
For the molecule B6, the “hGluc-R EC50 (pM)” value in experiment [1] came out at 80.3 pM. In addition, the “hGLP-1R EC50 (pM)” value in experiment [2] was determined as 133 pM.
